Molecular target: the molecule itself
Assay: SEC; immunoaffinity-purified hOR17-4 at 0.75 mg/ml on HiLoad 16/60 Superdex 200 in PBS + 0.2% w/v fos-choline-14, 1 ml/min; peak fractions analysed by SDS-PAGE and SYPRO-Ruby staining

B1: human olfactory receptor 17-4 with C-terminal GlyGly linker and rho1D4 tag (hOR17-4-GlyGly-rho1D4) (receptor, UniProt P34982 1-312, looked up)
chain: MDGGNQSEGSEFLLLGMSESPEQQRILFWMFLSMYLVTVVGNVLIILAISSDSRLHTPVYFFLANLSFTDLFFVTNTIPKMLVNLQSHNKAISYAGCLTQLYFLVSLVALDNLILAVMAYDRYVAICCPLHYTTAMSPKLCILLLSLCWVLSVLYGLIHTLLMTRVTFCGSRKIHYIFCEMYVLLRMACSNIQINHTVLIATGCFIFLIPFGFVIISYVLIIRAILRIPSVSKKYKAFSTCASHLGAVSLFYGTLCMVYLKPLHTYSVKDSVATVMYAVVTPMMNPFIYSLRNKDMHGALGRLLDKHFKRLT
notes: human olfactory receptor 17-4 (OR1D2), wild type, 312 amino acids; with GlyGly linker and rho1D4 tag the construct has 323 amino acids; Synthetic, human codon-optimised gene in pcDNA4/To; also called OR1D2; hOR17-4-rho
  stoichiometry N: 2

Source: paper PMC2488374, “Study of a Synthetic Human Olfactory Receptor 17-4: Expression and Purification from an Inducible Mammalian Cell Line” (PLoS ONE, 2008)
